# Changes are numbered by the printed parent chain. In names and notes the source's numbering stands.
# B1: variant PD-L2 IgV-Fc V89D (Fc fusion, not shown: a dimerising Fc or GST; small tags and cut ends)
# chain: LFTVTVPKELYIIEHGSNVTLECNFDTGSHVNLGAITASLQKVENDTSPHRERATLLEEQLPLGKASFHIPQVQVRDEGQYQCIIIYGDAWDYKYLTLK
# B2: ICOSL variant N52D ECD-Fc fusion (Fc fusion)
# chain: DTQEKEVRAMVGSDVELSCACPEGSRFDLNDVYVYWQTSESKTVVTYHIPQDSSLENVDSRYRNRALMSPAGMLRGDFSLRLFNVTPQDEQKFHCLVLSQSLGFQEVLSVEVTLHVAANFSVPVVSAPHSPSQDELTFTCTSINGYPRPNVYWINKTDNSLLDQALQNDTVFLNMRGLYDVVSVLRIARTPSVNIGCCIENVLLQQNLTVGSQTGNDIGERDKITENPVSTGEKNAAT
# notes: not shown: no entry of the listing is held
# B3: ICOSL variant F120S/Y152H/N201S ECD-Fc fusion (Fc fusion)
# chain: B2 chain with D52N, F120S, Y152H, N201S
# notes: not shown: C220S/R292C/N297G/V302C) and the AAA linker to it
# B4: ICOSL variant N52S/Y146C/Y152C ECD-Fc fusion (Fc fusion, not shown: a dimerising Fc or GST; small tags and cut ends)
# chain: B2 chain with D52S, Y146C, Y152C
# B5: ICOSL variant N52S/S130G/Y152C ECD-Fc fusion (Fc fusion)
# chain: B2 chain with D52S, S130G, Y152C
# notes: not shown: The AAA linker to it is left out
# B6: ICOSL variant N52H/N57Y/Q100P ECD-Fc fusion (Fc fusion)
# chain: B2 chain with D52H, N57Y, Q100P
# notes: as for B2
# How the values were obtained:
# [1] = biological target: PD-1-Fc; experiment: Fortebio (BLI), PD-1-Fc
# [2] = biological target: human ICOS as used for the 'ICOS OD' read-out of Table 14 (human); experiment: binding read as OD; format not described
# human ICOS as used for the 'ICOS OD' read-out of Table 14 (human), sequence (Q9Y6W8 whole entry): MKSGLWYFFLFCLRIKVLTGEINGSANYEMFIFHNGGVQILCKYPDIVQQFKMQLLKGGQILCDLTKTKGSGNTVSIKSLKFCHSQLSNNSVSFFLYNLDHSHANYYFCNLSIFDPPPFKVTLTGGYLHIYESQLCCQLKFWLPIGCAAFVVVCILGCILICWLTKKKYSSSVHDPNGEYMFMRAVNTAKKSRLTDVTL
Binder,Fortebio binding to PD-1-Fc Response Units [1],ICOS OD [2],ICOS OD parental ratio [2]
B1,0.005 Response Units,,
B2,,1.59 OD,1.85 ratio to WT ICOSL ECD-Fc
B3,,0.63 OD,0.73 ratio to WT ICOSL ECD-Fc
B4,,1.26 OD,1.47 ratio to WT ICOSL ECD-Fc
B5,,0.16 OD,0.19 ratio to WT ICOSL ECD-Fc
B6,,1.57 OD,1.83 ratio to WT ICOSL ECD-Fc

# Source: patent publication US20200040059A1 (ALPINE IMMUNE SCIENCES, published 2020)
